From patent CN117088975A

Biological target: ALB蛋白(天然提取)
Assay: AMC sensor, antibody immobilised at 10 ug/ml, ALB in gradient dilution in PBST

**Q.** 对照 (antibody) was tested. Which Kd did it give?
**A.** 32.4 nM

**Q.** What about the koff of the same substance?
**A.** 0.000483 s⁻¹

**Q.** What about the kon of the same substance?
**A.** 14900 M⁻¹ s⁻¹
